Test [1] has as its target cynomolgus ICOS (cynomolgus). Kind of test: flow cytometry, cynomolgus splenic naive T cells (CD4+ CD45RA+).
Test [2] addresses cynomolgus ICOS (cynomolgus). Kind of test: flow cytometry, cynomolgus mesenteric lymph node activated T cells (CD4+ CD45RA-).
The target of test [3] is cynomolgus ICOS (cynomolgus). Kind of test: flow cytometry, cynomolgus splenic memory T cells (CD4+ CD45RA-).
The target of test [4] is cynomolgus ICOS (cynomolgus). Kind of test: flow cytometry, cynomolgus mesenteric lymph node naive T cells (CD4+ CD45RA+).

Drawing on patent US20110243929A1, this text covers % of gated cells in the positive quadrant for one substance.

cynomolgus ICOS (cynomolgus), sequence (A0A2K5 entry or part of it limits assumed): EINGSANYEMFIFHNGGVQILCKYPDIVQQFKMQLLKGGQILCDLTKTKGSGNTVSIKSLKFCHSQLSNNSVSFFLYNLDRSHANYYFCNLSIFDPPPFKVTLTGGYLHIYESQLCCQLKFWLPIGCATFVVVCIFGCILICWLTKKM

With Isotype Control (antibody), the % of gated cells in the positive quadrant stood at 1.7% in test [1], 1.64% in test [2], 2.4% in test [3] and 2.8% in test [4].
